Experimental data reported in patent US20260109774A1 (JUNO THERAPEUTICS, published 2026).

Columns and labels:
[1] = biological target: T1, human BCMA amino acid residues 1-54 (linear and conformational peptide libraries) (human, UniProt Q02223 1-54); assay: CLIPS peptide array, ELISA
T1 construct: Presented as CLIPS peptide arrays (linear peptides and structural mimetics) on a solid support
T1 sequence: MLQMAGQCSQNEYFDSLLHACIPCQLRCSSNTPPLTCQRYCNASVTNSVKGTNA
Protocol: (§1) Mapping was carried out using anti-BCMA scFv clones, such as those fused with mouse Fc (scFv-mFc).
(§2) Linear and conformational peptide libraries of amino acid residues 1-54 of human BCMA (set forth as amino acid residues 1-54 of SEQ ID NO:367) were generated based on a combinatorial matrix design. Linear peptides and structural mimetics including single loop, a-helix, 3-turn, combinatorial and linear disulfide bridge mimics, and discontinuous epitope mimics were used, along with positive and negative control peptides, on an amino-functionalized solid support.
(§3) Affinities for binding to the peptides in the epitope library were determined using ELISA. The peptide arrays were incubated with a solution containing the scFv overnight at 4° C. Affinity information was used in iterative screens to define the sequence and conformation of epitopes. Heat maps of affinity information for two or more loops were generated.

[2] = biological target: T2, recombinant human BCMA-hFc (human, UniProt Q02223 1-54, biotinylated in the kinetic exclusion assay of paragraph 546); assay: KinExA kinetic exclusion assay, CAR-expressing Jurkat cells titrated into 20 nM or 1 nM biotinylated rhBCMA hFc
T2 construct: also called rhBCMA hFc; recombinant human BCMA fusion protein
T2 sequence: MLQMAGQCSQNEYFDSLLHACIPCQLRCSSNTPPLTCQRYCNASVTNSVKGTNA

[3] = biological target: T3, BCMA-Fc (soluble human BCMA fused at its C-terminus to an Fc region of IgG) (human, UniProt Q02223 1-54); assay: flow cytometry, T cells transduced with Non-SSE construct, CD8 gate, recombinant BCMA-Fc (rBCMA) staining against surrogate marker
T3 construct: also called hBCMA-Fc; hBMCA-Fc
T3 sequence: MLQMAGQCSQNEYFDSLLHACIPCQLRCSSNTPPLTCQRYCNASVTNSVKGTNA
Protocol: (§4) Lentiviral constructs containing anti-BCMA CAR-encoding polynucleotides with starting and optimized sequences, respectively, as described in Example 3, were transduced into T cells and transduced cells were analyzed for transduction (based on expression of a surrogate marker) and for CAR expression based on binding to recombinant BCMA-Fc fusion protein by flow cytometry.

[4] = biological target: T2, recombinant human BCMA-hFc; assay: kinetics exclusion assay, CAR expressed on a Jurkat T cell line, rhBCMA hFc in solution; CAR on Jurkat cells, kinetics exclusion assay (not the scFv-Fc by Biacore)
Protocol: A CAR with a BCMA-55-derived scFv binding domain, a modified IgG-derived CH2-CH3-hinge spacer, a CD28 transmembrane domain, and 41BB and CD3zeta endodomain, was expressed in a Jurkat T cell line. Kinetics of binding by the CAR to recombinant human BCMA-hFc (rhBCMA hFc) was assessed using a kinetics exclusion assay. Affinity of binding of an Fc fusion protein containing the scFv portion of the CAR (scFv-Fc) to recombinant human BCMA fusion protein was also assessed using a Biacore-based assay.

[5] = biological target: T3, BCMA-Fc (soluble human BCMA fused at …); assay: flow cytometry, T cells transduced with O/SSE construct, CD8 gate, recombinant BCMA-Fc (rBCMA) staining against surrogate marker
Protocol: as §4

[6] = biological target: T3, BCMA-Fc (soluble human BCMA fused at …); assay: flow cytometry, T cells transduced with Non-SSE construct, CD4 gate, recombinant BCMA-Fc (rBCMA) staining against surrogate marker
Protocol: as §4

[7] = biological target: T3, BCMA-Fc (soluble human BCMA fused at …); assay: flow cytometry, T cells transduced with O/SSE construct, CD4 gate, recombinant BCMA-Fc (rBCMA) staining against surrogate marker
Protocol: as §4

[8] = biological target: T4, human B-cell maturation antigen (BCMA) on cells (human, UniProt Q02223 1-184); assay: flow cytometry on BCMA-expressing HEK293 cells vs control cells, crude lysate or bacterial supernatant; clone listed in Table E2
T4 construct: Recombinant on HEK293 or K562 cells, or endogenous on cell lines (H929, RPMI 8226, OPM2, MM1S, Daudi); also called hBCMA; huBCMA
T4 chain: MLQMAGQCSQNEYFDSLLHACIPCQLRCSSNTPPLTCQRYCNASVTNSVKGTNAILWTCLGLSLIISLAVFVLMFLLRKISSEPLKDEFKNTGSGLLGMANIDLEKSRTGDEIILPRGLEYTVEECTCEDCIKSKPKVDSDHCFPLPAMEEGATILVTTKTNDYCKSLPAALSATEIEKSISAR
Protocol: Specific binding of resulting scFv clones to BCMA-expressing HEK293 cells, as compared to control cells not expressing BCMA, was assessed by flow cytometry either with in vitro translated crude cell lysate or with bacterially-produced supernatant.

[9] = biological target: T5, human BCMA peptide 30SNTPPLTCQR39 (human); assay: CLIPS peptide array, ELISA
T5 construct: Could be recognized in a linear form
T5 peptide: SNTPPLTCQR
Protocol: as §1, §2, §3

B1: BCMA-52-scFv-mFc (Fc fusion, not shown: a dimerising Fc or GST)
chain: SYELTQPPSASGTPGQRVTMSCSGTSSNIGSHSVNWYQQLPGTAPKLLIYTNNQRPSGVPDRFSGSKSGTSASLAISGLQSEDEADYYCAAWDGSLNGLVFGGGTKLTVLGSRGGGGSGGGGSGGGGSLEMAEVQLVQSGAEVKKPGESLKISCKGSGYSFTSYWIGWVRQMPGKGLEWMGIIYPGDSDTRYSPSFQGHVTISADKSISTAYLQWSSLKASDTAMYYCARYSGSFDNWGQGTLVTVSS
notes: also called BCMA-52 scFv fused with mouse Fc
[1]
  binding result: binds

B2: BCMA-55-LS CAR (other)
chain: QSALTQPASVSASPGQSIAISCTGTSSDVGWYQQHPGKAPKLMIYEDSKRPSGVSNRFSGSKSGNTASLTISGLQAEDEADYYCSSNTRSSTLVFGGGTKLTVLGSRGGGGSGGGGSGGGGSLEMAEVQLVQSGAEMKKPGASLKLSCKASGYTFIDYYVYWMRQAPGQGLESMGWINPNSGGTNYAQKFQGRVTMTRDTSISTAYMELSRLRSDDTAMYYCARSQRDGYMDYWGQGTLVTVSSESKYGPPCPPCPAPPVAGPSVFLFPPKPKDTLMISRTPEVTCVVVDVSQEDPEVQFNWYVDGVEVHNAKTKPREEQFQSTYRVVSVLTVLHQDWLNGKEYKCKVSNKGLPSSIEKTISKAKGQPREPQVYTLPPSQEEMTKNQVSLTCLVKGFYPSDIAVEWESNGQPENNYKTTPPVLDSDGSFFLYSRLTVDKSRWQEGNVFSCSVMHEALHNHYTQKSLSLSLGKMFWVLVVVGGVLACYSLLVTVAFIIFWVKRGRKKLLYIFKQPFMRPVQTTQEEDGCSCRFPEEEEGGCELRVKFSRSADAPAYQQGQNQLYNELNLGRREEYDVLDKRRGRDPEMGGKPRRKNPQEGLYNELQKDKMAEAYSEIGMKGERRRGKGHDGLYQGLSTATKDTYDALHMQALPPR
notes: Chimeric antigen receptor on T cells or Jurkat cells; also called BCMA-55-LS-O/SSE CAR; BCMA-55-LS CAR O/SSE
[2]
  Kd: ~1.46 nM
[3]
  % of cells in Q1 (rBCMA+ marker-): 7.95%
  % of cells in Q3 (rBCMA- marker+): 6.75%
  % of cells in Q4 (rBCMA- marker-): 48.8%
[4]
  Kd: ~1 nM
[5]
  % of cells in Q1 (rBCMA+ marker-): 2.47%
  % of cells in Q3 (rBCMA- marker+): 6.39%
  % of cells in Q4 (rBCMA- marker-): 47.8%
[6]
  % of cells in Q1 (rBCMA+ marker-): 8.66%
  % of cells in Q3 (rBCMA- marker+): 6.35%
  % of cells in Q4 (rBCMA- marker-): 40.9%
[7]
  % of cells in Q1 (rBCMA+ marker-): 1.9%
  % of cells in Q3 (rBCMA- marker+): 4.89%
  % of cells in Q4 (rBCMA- marker-): 43%

B3: BCMA-26 scFv (scFv)
scFv: EVQLVESGGGLVKPGGSLRLSCAASGFTFSDYYMSWIRQAPGKGLEWVSYISSSGSTIYYADSVKGRFTISRDNAKNSLYLQMNSLRAEDTAVYYCAKVDGPPSFDIWGQGTMVTVSSGGGGSGGGGSGGGGSSYVLTQPPSVSVAPGQTARITCGANNIGSKSVHWYQQKPGQAPMLVVYDDDDRPSGIPERFSGSNSGNTATLTISGVEAGDEADYFCHLWDRSRDHYVFGTGTKLTVL
[1]
  binding result: binds
[8]
  binding result: binds

B4: BCMA-9 scFv (scFv)
scFv: EVQLVQSGGGLVKPGGSLRLSCAASGFTFSDYYMSWIRQAPGKGLEWVSYISSSGSTIYYADSVKGRFTISRDNAKNSLYLQMNSLRAEDTAVYYCARVDGDYVDDYWGQGTLVTVSSGGGGSGGGGSGGGGSSYELTQPPSVSVAPGQTARVTCGANNIGSKSVHWYQQKPGQAPMLVVYDDDDRPSGIPERFSGSNSGNTATLTISGVEAGDEADYFCHVWDRSRDHYVFGTGTKLTVL
[1]
  binding result: binds
[8]
  binding result: binds

B5: BCMA-23 scFv (scFv)
scFv: EVQLVESGGGLVKPGGSLRLSCAASGFTFSDYYMSWIRQAPGKGLEWVSYISSSGSTIYYADSVKGRFTISRDNAKNSLYLQMNSLRAEDTAVYYCAKVDGDYTEDYWGQGTLVTVSSGGGGSGGGGSGGGGSQSALTQPASVSGSPGQSITISCTGSSSDVGKYNLVSWYQQPPGKAPKLIIYDVNKRPSGVSNRFSGSKSGNTATLTISGLQGDDEADYYCSSYGGSRSYVFGTGTKVTVL
[9]
  binding result: binds

B6: BCMA-52-LS CAR (other)
chain: SYELTQPPSASGTPGQRVTMSCSGTSSNIGSHSVNWYQQLPGTAPKLLIYTNNQRPSGVPDRFSGSKSGTSASLAISGLQSEDEADYYCAAWDGSLNGLVFGGGTKLTVLGSRGGGGSGGGGSGGGGSLEMAEVQLVQSGAEVKKPGESLKISCKGSGYSFTSYWIGWVRQMPGKGLEWMGIIYPGDSDTRYSPSFQGHVTISADKSISTAYLQWSSLKASDTAMYYCARYSGSFDNWGQGTLVTVSSESKYGPPCPPCPAPPVAGPSVFLFPPKPKDTLMISRTPEVTCVVVDVSQEDPEVQFNWYVDGVEVHNAKTKPREEQFQSTYRVVSVLTVLHQDWLNGKEYKCKVSNKGLPSSIEKTISKAKGQPREPQVYTLPPSQEEMTKNQVSLTCLVKGFYPSDIAVEWESNGQPENNYKTTPPVLDSDGSFFLYSRLTVDKSRWQEGNVFSCSVMHEALHNHYTQKSLSLSLGKMFWVLVVVGGVLACYSLLVTVAFIIFWVKRGRKKLLYIFKQPFMRPVQTTQEEDGCSCRFPEEEEGGCELRVKFSRSADAPAYQQGQNQLYNELNLGRREEYDVLDKRRGRDPEMGGKPRRKNPQEGLYNELQKDKMAEAYSEIGMKGERRRGKGHDGLYQGLSTATKDTYDALHMQALPPR
notes: Chimeric antigen receptor on T cells; also called BCMA-52-LS-O/SSE CAR; BCMA-52-L CAR
[3]
  % of cells in Q1 (rBCMA+ marker-): 2.88%
  % of cells in Q3 (rBCMA- marker+): 24.3%
  % of cells in Q4 (rBCMA- marker-): 41.1%
[5]
  % of cells in Q1 (rBCMA+ marker-): 3.89%
  % of cells in Q3 (rBCMA- marker+): 5.38%
  % of cells in Q4 (rBCMA- marker-): 28.3%
[6]
  % of cells in Q1 (rBCMA+ marker-): 1.71%
  % of cells in Q3 (rBCMA- marker+): 19.5%
  % of cells in Q4 (rBCMA- marker-): 42.5%
[7]
  % of cells in Q1 (rBCMA+ marker-): 3.66%
  % of cells in Q3 (rBCMA- marker+): 3.85%
  % of cells in Q4 (rBCMA- marker-): 22.9%

B7: BCMA-25 scFv (scFv)
scFv: EVQLVQSGGGLVQPGRSLRLSCTASGFTFGDYAMSWFRQAPGKGLEWVGFIRSKAYGGTTEYAASVKGRFTISRDDSKSIAYLQMNSLKTEDTAVYYCAAWSAPTDYWGQGTLVTVSSGGGGSGGGGSGGGGSDIQMTQSPAFLSASVGDRVTVTCRASQGISNYLAWYQQKPGNAPRLLIYSASTLQSGVPSRFRGTGYGTEFSLTIDSLQPEDFATYYCQQSYTSRQTFGPGTRLDIK
[9]
  binding result: binds
[8]
  binding result: binds

B8: BCMA-1 scFv (scFv)
scFv: QVQLVQSGGGLVQPGRSLRLSCTASGFTFGDYAMSWFRQAPGKGLEWVGFIRSKAYGGTTEYAASVKGRFTISRDDSKSIAYLQMNSLKTEDTAVYYCAAWSAPTDYWGQGTLVTVSSGGGGSGGGGSGGGGSDIVMTQSPDSLSVSPGERATISCKSSQSVLSTSNNKNYLAWYQQKPGQPPRLLLYWASTREAGVPDRFSGSGSGTDFTLTISSLQAEDVAVYYCQQYFSSPYTFGHGTKLEIK
[9]
  binding result: binds
[8]
  binding result: binds

B9: BCMA-5 scFv (scFv)
scFv: QVQLVQSGGGLVQPGRSLRLSCTASGFTFGDYAMSWFRQAPGKGLEWVGFIRSKAYGGTTEYAASVKGRFTISRDDSKSIAYLQMNSLKTEDTAVYYCAAWSAPTDYWGQGTLVTVSSGGGGSGGGGSGGGGSDIVMTQSPDSLAVSLGERATINCKSSQSVLYSSNNKNYLAWYQQKPGQPPKLLIYWASTRESGVPDRFSGSGSGTDFTLTISSLQAEDVAVYYCQQYYSTPWTFGQGTKVDIK
[9]
  binding result: binds
[8]
  binding result: binds
